The values below come from patent US20250060376A1 (PLASMARKER BIOTECHNOLOGY, published 2025).

To fix the notation:
B1: DNA damage-inducible transcript 4-like (DDIT4L) intron retention spliced product (DIR) protein (other)
chain: MVATGSLSSKNPASISELLDCGYHPESLLSGECPRCPPFSPPKVGASGSIGWAGFRLPPLPLCRRCHKIHLRRLLSKFSNIFSP
notes: 84 aa spliced product peptide; also called QDLIR; human DIR
B2: DIR antibody IR-II-6 (antibody, V domains shown)
VH: QVQLQQSGAELMKPGASVKISCKATGYTFSRYWIEWIKQRPGHGLEWIGEILPGSYYSTNSNEKFKGKATFTADTSSNTAYMQLSSLTSEDSAVYYCARSGVITTRGDYFAMDYWGHGTSVTVSS
VL: DIVLTQSPASLAVSLGQRATISCKASQSVDYDGDSYMNWYQQKPGQPPKLLMYAASNLESGIPARFSGSGSGTDFTLNIHPVEEEDAATYYCQQSNEDPRTFGGGTKLEIK
notes: Monoclonal antibody; also called detection antibody

The target of one test is T1, GluA1 (mouse (hippocampus of DIR-KI mice), UniProt P23818 19-907, limits assumed).
T1 construct: Endogenous protein in tissue sections (PLA assay)
Briefly: PLA assay in hippocampus (FIG. 20E).

The target of test [1] is T2, fragment DIR-II (last 27 amino acids of the sequence encoded by the retained intron of DIR) (human).
T2 construct: also called target fragment DIR-II
T2 peptide: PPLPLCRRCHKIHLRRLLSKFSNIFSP
Description: ELISA, DIR-II coated; mAb (1 mg/mL) diluted 1:6k. As for the experimental part:
(§1) The binding activity of the above antibodies IR-II-1 to IR-II-10 to fragments DIR-II was detected. The method specifically comprises:
(§2) The target fragment DIR-II was coated on a 96-well plate using a coating buffer and blocked with a blocking buffer. […] Then, a secondary antibody with horseradish peroxidase (1:5k) was added and incubated at 37° C. After washing three times, an appropriate volume of TMB substrate solution was added, and the resulting mixture was incubated at 37° C. for a certain period of time, and then placed under a microplate reader to record the absorbance value of the sample at a wavelength of 450 nm.
A general note: ELISA stands for enzyme-linked immunosorbent assay.

Test [2] deals with T2, fragment DIR-II (last 27 amino acids of …). Description: ELISA, DIR-II coated; mAb (1 mg/mL) diluted 1:1458k. Here is the method:
as §1, §2

Test [3] shares this target. Briefly: ELISA, DIR-II coated; mAb (1 mg/mL) diluted 1:54k. Here is the method:
as §1, §2

Test [4] shares this target. Description: ELISA, DIR-II coated; mAb (1 mg/mL) diluted 1:2k. Here is the method:
as §1, §2

The target is the same in test [5]. Description: ELISA, DIR-II coated; mAb (1 mg/mL) diluted 1:4374k. Here is the method:
as §1, §2

For test [6] the target is unchanged. Description: ELISA, DIR-II coated; mAb (1 mg/mL) diluted 1:162k. Here is the method: as §1, §2
The target is the same in test [7]. Description: ELISA, DIR-II coated; mAb (1 mg/mL) diluted 1:18k. As for the experimental part: as §1, §2
Test [8] has the same target. Description: ELISA, DIR-II coated; mAb (1 mg/mL) diluted 1:486k. Here is the method: as §1, §2
In test [9] the target is B1. Description: sandwich ELISA, capture antibody GL Biochem AB009458, detection antibody IR-II-6 (method of paragraph 444). Here is the method:
Methods for collecting venous blood and obtaining plasma: The blood was collected from the vein in cubital fossa of a patient into an EDTA vacuum tube by using the vacuum blood collection technique, and the tube was immediately inverted gently 8 times to fully mix the blood and an anticoagulant. Then, the tube was transported to the laboratory on ice, centrifuged for 10 min at 1500 g at 4° C., and the supernatant was aspirated, aliquoted, and stored at −80° C.
ELISA method for plasma: The plasma sample was diluted at 1:1 with 1× diluent (OBT1998G, purchased from Bio-Rad); then, 100 μl of a blocking solution was added using a pipette for blockage for 1 h at 37° C.; then, 100 μl of a proportionally diluted standard and diluted plasma were added into plate wells coated with capture antibodies (GL Biochem, AB009458) by using the pipette, the tip of which was changed for each sampling; the resulting mixture was incubated for 1.5 h at 37° C.; the liquid in each well was removed, and the well was washed 3 times with 100 μl 1× washing solution (BUF031C, purchased from Bio-Rad); 100 μl of detection antibody (i. e., the DIR antibody IR-II-6, of which a VH amino acid sequence was as set forth in SEQ ID NO. 58, and of which a VL amino acid sequence was as set forth in SEQ ID NO. […]

T1 sequence (P23818 19-907 limits assumed): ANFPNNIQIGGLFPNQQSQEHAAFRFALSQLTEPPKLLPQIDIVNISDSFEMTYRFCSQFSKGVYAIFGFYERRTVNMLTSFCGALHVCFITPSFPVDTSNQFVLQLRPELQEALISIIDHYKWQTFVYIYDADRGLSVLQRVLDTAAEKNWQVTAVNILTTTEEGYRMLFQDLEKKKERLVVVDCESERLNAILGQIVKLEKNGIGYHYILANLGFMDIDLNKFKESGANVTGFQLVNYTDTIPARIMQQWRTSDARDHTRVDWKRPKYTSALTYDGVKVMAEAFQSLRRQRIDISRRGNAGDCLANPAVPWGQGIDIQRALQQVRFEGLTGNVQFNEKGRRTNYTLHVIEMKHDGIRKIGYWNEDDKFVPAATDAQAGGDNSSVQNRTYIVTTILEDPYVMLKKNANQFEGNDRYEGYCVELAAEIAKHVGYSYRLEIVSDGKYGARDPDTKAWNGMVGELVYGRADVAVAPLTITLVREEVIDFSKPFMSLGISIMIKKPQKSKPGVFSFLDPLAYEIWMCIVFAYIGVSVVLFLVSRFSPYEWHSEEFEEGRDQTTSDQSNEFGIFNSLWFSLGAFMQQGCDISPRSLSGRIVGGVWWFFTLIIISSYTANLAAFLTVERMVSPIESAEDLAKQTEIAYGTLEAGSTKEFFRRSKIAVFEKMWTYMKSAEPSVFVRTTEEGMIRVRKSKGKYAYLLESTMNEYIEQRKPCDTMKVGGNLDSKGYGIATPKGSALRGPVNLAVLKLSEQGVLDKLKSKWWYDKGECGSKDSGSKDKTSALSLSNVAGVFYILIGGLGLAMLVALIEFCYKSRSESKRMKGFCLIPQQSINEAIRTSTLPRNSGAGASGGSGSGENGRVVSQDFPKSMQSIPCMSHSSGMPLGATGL

Take B1: the binding result in the test with GluA1 was “binds”.

Take B2: the “absorbance at 450 nm” value is 3.18 absorbance (450 nm) in [1]; 0.2 absorbance (450 nm) in [2]; 0.78 absorbance (450 nm) in [3]; 3.09 absorbance (450 nm) in test [4]; 0.18 absorbance (450 nm) in test [5]; 0.414 absorbance (450 nm) in test [6]. Besides, the “absorbance at 450 nm” value was 2.01 absorbance (450 nm) in [7] and 0.306 absorbance (450 nm) in test [8]. In test [9], the binding result is recorded as “binds”.
